What follows are binders tested against LgTrip 3546 (with His tag; SEQ ID NO: 51) (assay: luminescence complementation; SmTrip9 Kd). Settings: modification not given.
Sequence of LgTrip 3546 (with His tag; SEQ ID NO: 51) (chain, as listed by the source): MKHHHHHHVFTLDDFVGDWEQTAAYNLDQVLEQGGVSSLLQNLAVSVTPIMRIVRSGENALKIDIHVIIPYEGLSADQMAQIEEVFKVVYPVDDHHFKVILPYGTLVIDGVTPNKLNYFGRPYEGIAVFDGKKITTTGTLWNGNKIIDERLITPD

Kd	Binder
120 nM	DRMLFRVTIQRWR [762]
540 nM	DKLLFTVTIGKWK [793]
100 nM	GRMLFRVTINRWR [768]
9750 nM	DKLLFTVTINKYK [800]
240 nM	DKMLFKVTIQKYK [783]
730 nM	DKMLFKVTINKWK [787]
70 nM	ERMLFRVTIGRWR [766]
380 nM	DKMLFKVTIEKYK [785]
410 nM	DKMLFRVTINKWK [784]
210 nM	DKLLFTVTINKWK [799]
150 nM	DKMLFTVTIEKWK [753]
20 nM	KKLLFRVTIQKWK [761]
350 nM	DRMLFRVTIERWR [770]
360 nM	GKMLFTVTINKWK [782]
110 nM	DKMLFRVTIQKWK [738]
1060 nM	DKMLFTVTIGKWK [749]
1000 nM	DKMLFRVTIEKWK [742]
380 nM	GKMLFKVTINKWK [781]
20 nM	KKMLFRVTIQKWK [760]
230 nM	DKLLFTVTIGKYK [794]
500 nM	DKMLFTVTINKWK [786]

Each binder was assayed against LgTrip 3546 (with His tag; SEQ ID NO: 51) (assay: luminescence complementation). Settings: modification not given.

Kd	Binder
60 nM	KQMLFRVTINSWK [654]
370 nM	EKMLFTVTIGRWK [712]
610 nM	DKLLFKVTIGKYK [751]
370 nM	GKMKFRVTIRSWK [719]
360 nM	EKMLFTVTIEKWK [720]
100 nM	DKLLFKVTIQKYK [747]
640 nM	EKLLFRVTIGKYK [726]
40 nM	GKMLFRVTIKSWK [621]
440 nM	DKMLFKVTIGKWK [748]
1140 nM	GKMKFRVTIESWK [717]
160 nM	KLMLFRVTINSWK [653]
350 nM	DKLLFKVTIGKWK [750]
1130 nM	DKMLFKVTIQKWK [744]
380 nM	GKMLFRVTIGNWK [669]
4380 nM	DQMLFRVTINSWK [658]
750 nM	DKLLFKVTIEKWK [754]
2580 nM	GKMLFRVSINSWK [614]
200 nM	DKMLFRVTIGKWK [739]
1450 nM	DKLLFKVTIEKYK [755]
12600 nM	DKMLFRVTIQNWK [741]
1100 nM	DKLLFKVTIQKWK [746]
180 nM	EKMLFRVTIGRWK [709]
17800 nM	DKMLFRVTIESWK [722]
120 nM	GKMLFRVTINRWK [701]
40 nM	RLMLFRVTINSWK [651]
2690 nM	GKMNFRVTINSWK [618]
120 nM	DKMLFTVTIEKWK [753]

Kd	Binder
1510 nM	GSMLFRVTINSYK [619]
500 nM	EKLLFTVTIGKWK [711]
3650 nM	DKMLFRVTIGNWK [740]
70 nM	DLMLFRVTINSWK [657]
5250 nM	GKMLFRVNINSWK [613]
30 nM	RQMLFRVTINSWK [652]
15900 nM	ELMLFRVTINSWK [655]
320 nM	GKMWFRVTINSWK [617]
20 nM	RLMLFRVTIGKWK [676]
1230 nM	GKMSFRVTINSWK [616]
230 nM	DKMLFRVTIQKWK [738]
1120 nM	EKMLFRVTIEKWK [707]
380 nM	GKMKFRVTIKSWK [718]
1700 nM	DKMLFTVTIGKWK [749]
750 nM	DKMLFRVTIEKWK [742]
1290 nM	EKMLFTVTIGKWK [710]
290 nM	GKMKFRVTIQSWK [716]
30 nM	GKMLFRVTISKWK [670]
280 nM	EKMLFRVTIGKWK [708]
320 nM	DKMLFKVTIEKWK [752]
40 nM	GKMLFRVTIKKWK [673]
350 nM	GKMLFRVWINSWK [615]
10 nM	GKMLFRVTITKWK [672]
110 nM	GKMLFRVTIEKWK [703]
220 nM	EKMLFKVTIQKWK [714]
6260 nM	EQMLFRVTINSWK [656]

What follows are binders tested against LgTrip 3546 (with His tag; SEQ ID NO: 51) (assay: not given). Settings: modification not given.

Kd	Binder
230 nM	SSWKRGSMLFRVWINS [427]
